Measurements from the RNAGym collection of RNA variant scans (doi:10.1093/molbev/msab373).

B1: Azoarcus group I ribozyme (parent)
chain: GUGCCUUGCGCCGGGAAACCACGCAAGGGAUGGUGUCAAAUUCGGCGAAACCUAAGCGCCCGCCCGGGCGUAUGGCAACGCCGAGCCAAGCUUCGGCGCCUGCGCCGAUGAAGGUGUAGAGACUAGACGGCACCCACCUAAGGCAAACGCUAUGGUGAAGGCAUAGUCCAGGGAGUGGCGAAAGUCACACAAACCGG

Variants of: B1
Assay: reverse-splicing fitness (ratio to wild type); higher = more active; in vitro selection; Mg2+ level not given
Procedure, shortened: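 An in vitro group I ribozyme library with randomized positions was T7-transcribed and gel-purified. In triplicate, 10 pmol RNA in EPPS pH 7.5 was reacted with 50 pmoles of a 30-nt RNA substrate for 1 h at 37 °C across several added MgCl2 levels (1–48 mM), then stopped with EDTA. Products were reverse transcribed from a substrate-complementary primer, PCR-amplified and sequenced (HiSeq 4000). Fitness is a variant's read proportion after selection over that before, normalised to wild type.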

Row | Variant | reverse-splicing fitness
1 | C82A A120G A145C C150A C169A U176G | 0.00399
2 | C82A A120G A145G C169G U176C | 0.032
3 | C82A A120G A145G C169G U176G | 0.00359
4 | C82A A120G A145G C169G U176A | 0.0223
5 | C82A A120U A145C C150A C169U | 0.00225
6 | C82A A120U A145C C150A C169G | 0.00223
7 | C82A A120U A145C C150A C169A | 0.00256
8 | C82A A120G A145U C150U C169A U176C | 0.0113
9 | C82A A120G A145U C150U C169A U176G | 0.00418
10 | C82A A120G A145U C150U C169A U176A | 0.013
11 | C82A A120U | 0.154
12 | C82A A120G | 0.0258
13 | C82A A120G A145C C150U C169A U176A | 0.0121
14 | C82A A120G A145C C150U C169A U176C | 0.00527
15 | C82A A120G A145C C150U C169A U176G | 0.00425
16 | C82A A120C C150G C169A U176C | 0.0129
17 | C82A A120C C150G C169A U176G | 0.00817
18 | C82A A120C C150G C169A U176A | 0.0126
19 | C82A A120G A145G C150A C169G | 0.0104
20 | C82A A120G A145G C150A C169A | 0.0112
21 | C82A A120G A145G C150A C169U | 0.00961

Row | Variant | reverse-splicing fitness
22 | C82A A120G A145G C150U U176A | 0.0104
23 | C82A A120G A145G C150U U176G | 0.00667
24 | C82A A120G A145G C150U U176C | 0.0178
25 | C82A A120G A145G C169A U176G | 0.00382
26 | C82A A120G A145G C169A U176A | 0.0208
27 | C82A A120G A145G C169A U176C | 0.0273
28 | C82A A120G A145U C150G C169A U176G | 0.00378
29 | C82A A120G A145U C150G C169A U176C | 0.01
30 | C82A A120G A145U C150G C169A U176A | 0.0097
31 | C82A A120G C150G C169U U176G | 0.00654
32 | C82A A120G C150G C169U U176A | 0.0119
33 | C82A A120G C150G C169U U176C | 0.0133
34 | C82A A120G A145G C150A C169U U176C | 0.0185
35 | C82A A120G A145G C150A C169U U176A | 0.0211
36 | C82A A120G A145G C150A C169U U176G | 0.00592
37 | C82A A120G A145C C169G U176A | 0.0259
38 | C82A A120G A145C C169G U176G | 0.00403
39 | C82A A120G A145C C169G U176C | 0.0162
40 | C82A A120C C150U C169G U176C | 0.0201
41 | C82A A120C C150U C169G U176G | 0.00493
42 | C82A A120C C150U C169G U176A | 0.0152

Row | Variant | reverse-splicing fitness
43 | C82A A120C C150U C169U | 0.0173
44 | C82A A120C C150U C169A | 0.0105
45 | C82A A120C C150U C169G | 0.00925
46 | C82A A120G A145C C150G C169A U176G | 0.00399
47 | C82A A120G A145C C150G C169A U176A | 0.00899
48 | C82A A120G A145C C150G C169A U176C | 0.00611
49 | C82A A120G A145G C150G C169U U176A | 0.0129
50 | C82A A120G A145G C150G C169U U176G | 0.00741
51 | C82A A120G A145G C150G C169U U176C | 0.0123
52 | C82A A120G A145G C150U C169A | 0.0179
53 | C82A A120G A145G C150U C169U | 0.016
54 | C82A A120G A145G C150U C169G | 0.0197
55 | C82A A120C C150U U176C | 0.0394
56 | C82A A120C C150U U176A | 0.0246
57 | C82A A120C C150U U176G | 0.0111
58 | C82A A120G A145U C150A C169U U176G | 0.00431
59 | C82A A120G A145U C150A C169U U176C | 0.0164
60 | C82A A120G A145U C150A C169U U176A | 0.0207
61 | C82A A120G A145C C150A C169U U176A | 0.0192
62 | C82A A120G A145C C150A C169U U176G | 0.00478
63 | C82A A120G A145C C150A C169U U176C | 0.0107

Row | Variant | reverse-splicing fitness
64 | C82A A120G A145U C169A U176G | 0.00321
65 | C82A A120G A145U C169A U176C | 0.00947
66 | C82A A120G A145U C169A U176A | 0.0104
67 | C82A A120G C169U | 0.0166
68 | C82A A120G C169A | 0.0152
69 | C82A A120G C169G | 0.0233
70 | C82A A120G A145G C150G C169A U176A | 0.0138
71 | C82A A120G A145G C150G C169A U176C | 0.0128
72 | C82A A120G A145G C150G C169A U176G | 0.00858
73 | C82A A120C C150A U176A | 0.0151
74 | C82A A120C C150A U176C | 0.0248
75 | C82A A120C C150A U176G | 0.00826
76 | C82A A120G A145G C150U C169A U176A | 0.016
77 | C82A A120G A145G C150U C169A U176G | 0.00535
78 | C82A A120G A145G C150U C169A U176C | 0.0196
79 | C82A A120G A145G U176G | 0.00561
80 | C82A A120G A145G U176C | 0.021
81 | C82A A120G A145G U176A | 0.0143
82 | C82A A120C C150G C169A | 0.0112
83 | C82A A120C C150G C169G | 0.00866
